Measurements reported in US20210403579A1 (DELINIA, published 2021).
Residue numbers refer to the chain shown, from its start.

B1: Human ST2 IgG1 Antibody 5 (antibody, V domains shown)
VH: EVQLLESGGGLVQPGGSLRLSCAASGFTFSSYWMSWVRQAPGKGLEWVSSISSDTTYKYYADSVKGRFTISRDNSKNTLYLQMNSLRAEDTAVYYCAREVDTAMKNWGQGTLVTVSS
VL: DIQMTQSPSSLSASVGDRVTITCRASQGIGNDLAWYQQKPGKAPKLLIYAASSLQSGVPSRFSGSGSGTDFTLTISSLQPEDFATYYCQQSYSTPYTFGQGTKVEIKR
notes: IgG1; also called ST2 Antibody 5
B2: Human ST2 IgG1 Antibody 9 (antibody, V domains shown)
VH: EVQLLESGGGLVQPGGSLRLSCAASGFAFSSHWMHWVRQAPGKGLEWVATISSGSHSIHYADSVKGRFTISRDNSKNTLYLQMNSLRAEDTAVYYCAREAGTSYYYYGMDVWGKGTTVTVSS
VL: B1 VL with R24Q, G28D, G30R, D32Y, A34N, A50K, Q55E, Y96P, Q100G
notes: IgG1; also called ST2 Antibody 9
B3: Human ST2 IgG1 Antibody 17 (antibody, V domains shown)
VH: QVQLVQSGAEVKKPGASVKVSCKASGYTFTDSFMFWVRQAPGQGLEWVGLINPGTGATIFAQKFQGRVTMTRDTSTSTVYMELSSLRSEDTAVYYCARSSDYDSSDYWGQGTLVTVSS
VL: B1 VL with G28S, G30S, N31T, D32W, A50G, S93N, T94S
notes: IgG1; also called ST2 Antibody 17
B4: Human ST2 IgG1 Antibody 6 (antibody, V domains shown)
VH: EVQLLESGGGLVKPGGSLRLSCAASGFTFSSYWMSWVRQAPGKGLEWVSAIGGSGAGTYYADSVKGRFTISLDDSKNTLYLQMNSLKTEDTAVYYCARLSTVTRGFDYWGQGTLVTVSS
VL: B1 VL with G28S, G30S, D32W, A50S, S56N, Y96P
notes: IgG1; also called ST2 Antibody 6
B5: Human ST2 IgG1 Antibody 12 (antibody, V domains shown)
VH: QVQLVQSGAEVKKPGASVKVSCKASGYTFTGYYMHWVRQAPGQGLEWMGIIDPSGGGTSYAQKFQGRVTMTRDTSTSTVYMELSSLRSEDTAVYYCAKDIVVVPAAIANYYYGMDVWGQGTTVTVSS
VL: B1 VL with A25V, G30S, D32Y, A34N, A50G, S53T, Y96W, Q100P, E105D
notes: IgG1; also called ST2 Antibody 12
B6: Human ST2 IgG1 Antibody 19 (antibody, V domains shown)
VH: EVQLLESGGGLVQPGGSLRLSCAASGFSFSHAWMSWVRQAPGKGLEWVSVIHSGGSTFYADSVKGRFTISRDNSKNTLYLQMNSLRAEDTAVYYCARIGKGGGFDYWGQGTLVTVSS
VL: B1 VL with G28D, N31S, D32W, Y96P
notes: IgG1; also called ST2 Antibody 19
B7: Human ST2 IgG1 Antibody 4 (antibody, V domains shown)
VH: QVQLVQSGAEVKKPGSSVKVSCKASGGTFSTFGVSWVRQAPGQGLEWMGRIIPILATTNYAQKFQGRVTITADESTSTAYMELSSLRSEDTAVYYCASGDYYDSSGYYGYFQHWGQGTLVTVSS
VL: EIVMTQSPATLSVSPGERATLSCRASQSVSSSYLAWYQQKPGQAPRLLIYGASTRATGIPARFSGSGSGTEFTLTISSLQSEDFAVYYCQQSYSIPFTFGQGTKLEIKR
notes: IgG1; also called ST2 Antibody 4
B8: Human ST2 IgG1 Antibody 2 (antibody, V domains shown)
VH: QVQLVQSGAEVKKPGSSVKVSCKASGYTFSDYYVHWVRQAPGQGLEWMGGIIPIVGTANYAQKFQGRVTITADESTSTAYMELSSLRSEDTAVYYCARAGGGDYKSYYFDYWGRGTLVTVSS
VL: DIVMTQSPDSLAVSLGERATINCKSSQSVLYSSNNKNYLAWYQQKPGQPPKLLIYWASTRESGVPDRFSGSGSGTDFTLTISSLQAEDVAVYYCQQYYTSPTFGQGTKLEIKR
notes: IgG1; also called ST2 Antibody 2
B9: Human ST2 IgG1 Antibody 11 (antibody, V domains shown)
VH: QVQLVQSGAEVKKPGASVKVSCKASGGTFSSYAISWVRQAPGQGLEWMGWINPNSGGTNYAQKFQGRVTMTRDTSTSTVYMELSSLRSEDTAVYYCAMDTNYYYGMDVWGQGTTVTVSS
VL: DIQMTQSPSSLSASVGDRVTITCQASEDIANNLNWYQQKPGKAPKLLIYAASSLQSGVPSRFSGSGSGTDFTLTISSLQPEDFATYYCQQGYNIPFTFGQGTKLEIKR
notes: IgG1; also called ST2 Antibody 11
B10: Human ST2 IgG1 Antibody 18 (antibody, V domains shown)
VH: QVQLVQSGAEVKKPGSQVKVSCKASGYTFTSFGISWVRQAPGQGLEWLGGIIPTLGTANYAQKFQGRVTITADDSTSTAYMELSSLRSEDTAVYYCAGGAAAGPDKYYGMDVWGQGTTVTVSS
VL: not shown
notes: IgG1; also called ST2 Antibody 18
B11: Human ST2 IgG1 Antibody 3 (antibody, V domains shown)
VH: QVQLVQSGAEVKKPGSSVKVSCKASGGTFSSYAFSWVRQAPGQGLEWMGGIIPIFGTPNYAQKFQGRVTITADESTSTAYMELSSLRSEDTAVYYCARVRAKRPNWYFDLWGRGTLVTVSS
VL: not shown
notes: IgG1; also called ST2 Antibody 3
B12: Human ST2 IgG1 Antibody 15 (antibody, V domains shown)
VH: B11 VH with F34I, I54M, P58T, R98T, R100A, K102A, R103G
VL: B1 VL with R24Q, G30S, D32Y, A34N, S53T, Y96P
notes: IgG1; also called ST2 Antibody 15
B13: Human ST2 IgG1 Antibody 20 (antibody, V domains shown)
VH: EVQLLESGAEVKKPGSSVKVSCKASGGTFSSYAISWVRQAPGQGLEWMGGIIPIFGTANYAQKFQGRVTITADESTSTAYMELSSLRSEDTAVYYCASGFYSNDLYYYYYMDVWGKGTTVTVSS
VL: DIQMTQSPSSLSASVGDRVTITCRASQSISSWLAWYQQKPGKAPKLLIYDASNLKTGVPSRFSGSGSGTDFTLTISSLQPEDFATYYCQQTYAIPLTFGGGTKVEIKR
notes: IgG1; also called ST2 Antibody 20
B14: Human ST2 IgG1 Antibody 13 (antibody, V domains shown)
VH: QVQLVQSGAEVKKPGSSVKVSCKASGYTFTDYYMHWVRQAPGQGLEWMGGIMPLFGTIKYAQELQGRVTITADESTSTAYMELSSLRSEDTAVYYCARGRVGATDYWGQGTLVTVSS
VL: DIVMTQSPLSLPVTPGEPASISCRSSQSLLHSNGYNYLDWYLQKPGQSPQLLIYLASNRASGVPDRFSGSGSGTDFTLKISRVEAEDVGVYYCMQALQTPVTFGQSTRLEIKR
notes: IgG1; also called ST2 Antibody 13
B15: Human ST2 IgG1 Antibody 16 (antibody, V domains shown)
VH: QVQLVQSGAEVKKPGASVKVSCKASGYTFTSHYMHWVRQAPGQGLEWMGIINPSGGSTSYAQKFQGRVTMTRDTSTSTVYMELSSLRSEDTAVYYCARAGIGYLAAHDLYYYYGMDVWGRGTLVTVSS
VL: EIVMTQSPATLSVSPGERATLSCRASQSVSSNFAWYQQKPGQAPRLLIYGASTRATGIPARFSGSGSGTEFTLTISSLQSEDFAVYYCQQYYSTPYTFGQGTKVEIKR
notes: IgG1; also called ST2 Antibody 16
B16: Human ST2 IgG1 Antibody 1 (antibody, V domains shown)
VH: QVQLVQSGAEVKKPGSSVKVSCKASGGTFSSYAISWVRQAPGQGLEWMGGIIPIFGTANYAQKFQGRVTITADESTSTAYMELSSLRSEDTAVYYCAKSILGGRIFGGYFDLWGRGTLVTVSS
VL: DIVMTQSPLSLPVTPGEPASISCRSSQSLLHSNGYNYLDWYLQKPGQSPQLLIYAASSLQSGVPDRFSGSGSGTDFTLKISRVEAEDVGVYYCMQALQTPPTFGQGTKVEIKR
notes: IgG1; also called ST2 Antibody 1
B17: Human ST2 IgG1 Antibody 8 (antibody, V domains shown)
VH: QVQLVQSGAEVKKPGASVKVSCKASGGTFSSYAISWVRQAPGQGLEWMGWISPDNGNTNYAQKLQGRVTMTRDTSTSTVYMELSSLRSEDTAVYYCARLAYDTGYYYYYYMDVWGKGTTVTVSS
VL: B16 VL with S58T, A96G, L97T, Q98H, T99W, P101L
notes: IgG1; also called ST2 Antibody 8
B18: Human ST2 IgG1 Antibody 14 (antibody, V domains shown)
VH: QVQLVQSGAEVKKPGSSVKVSCKASGYTFTSYGISWVRQAPGQGLEWMGGIIPIFGTANYAPRFQGRVTITADESTSTAYMELSSLRSEDTAVYYCARDTVSMDVWGQGTTVTVSS
VL: B16 VL with A55D, S58N, Q60E, S61T, A96G, L97A, Q98H, T99W, V109L
notes: IgG1; also called ST2 Antibody 14
B19: Human ST2 IgG1 Antibody 10 (antibody, V domains shown)
VH: QVQLVQSGAEVKKPGSSVKVSCKASGGTFGYYAISWVRQAPGQGLEWMGGIIPMVGTGQYAQEFQGRVTITADESTSTAYMELSSLRSEDTAVYYCAGVEVGATRGYFQHWGQGTLVTVSS
VL: B16 VL with S58T, A96G, L97T, Q98H, T99W, P101T, K108R, V109L
notes: IgG1; also called ST2 Antibody 10
B20: Human ST2 IgG1 Antibody 7 (antibody, V domains shown)
VH: QVQLVQSGAEVKKPGASVKVSCKASGYTFTDSYIHWVRQAPGQGLEWMGWMNPNSGNTGYAQKFQGRVTMTRDTSTSTVYMELSSLRSEDTAVYYCARGVFDYGDYGYYYHYMDVWGKGTTVTVSS
VL: DIVMTQSPLSLPVTPGEPASISCRSSQSLLHSNGYNYLDWYLQKPGQSPQLLIYGASTLQPGVPDRFSGSGSGTDFTLKISRVEAEDVGVYYCMQGTQWPTFGQGTKLEIKR
notes: IgG1; also called ST2 Antibody 7

Biological target: T1, Human ST2 (human, UniProt Q01638 19-328, limits assumed)
T1 construct: also called human ST2 protein; Interleukin 1 receptor-like 1
T1 sequence (looked up): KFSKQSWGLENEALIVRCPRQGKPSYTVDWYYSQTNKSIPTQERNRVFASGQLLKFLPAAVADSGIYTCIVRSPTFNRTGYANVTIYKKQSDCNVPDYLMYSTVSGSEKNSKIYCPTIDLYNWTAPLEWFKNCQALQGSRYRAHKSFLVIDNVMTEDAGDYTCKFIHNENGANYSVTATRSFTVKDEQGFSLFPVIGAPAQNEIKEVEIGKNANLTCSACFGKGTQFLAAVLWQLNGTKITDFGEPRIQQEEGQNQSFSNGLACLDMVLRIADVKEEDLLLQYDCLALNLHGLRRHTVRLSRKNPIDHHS
Assay: SPR (Carterra), antibody immobilized, ST2 analyte
Method: Binding of the reformatted human ST2 antibodies to the human and mouse ST2 proteins was evaluated by surface plasmon resonance (SPR), using a high throughput antibody screening and characterization platform from Carterra (Salt Lake City, Utah).

Row | Binder | Kd [µM] | koff [s⁻¹] | kon [M⁻¹ s⁻¹]
1 | B1 | 0.19 | 0.048 | 250000
2 | B2 | 0.293 | 0.036 | 120000
3 | B3 | 0.433 | 0.033 | 76000
4 | B4 | 0.166 | 0.057 | 340000
5 | B5 | 0.217 | 0.024 | 110000
6 | B6 | 0.113 | 0.062 | 550000
7 | B7 | 0.012 | 0.0025 | 210000
8 | B8 | 0.229 | 0.11 | 500000
9 | B9 | 0.025 | 0.019 | 780000
10 | B10 | 1.1 | 0.11 | 95000
11 | B11 | 0.146 | 0.042 | 290000
12 | B12 | 0.769 | 0.14 | 190000
13 | B13 | 0.081 | 0.065 | 810000
14 | B14 | 0.201 | 0.04 | 200000
15 | B15 | 0.096 | 0.056 | 580000
16 | B16 | 0.617 | 0.072 | 120000
17 | B17 | 0.153 | 0.017 | 110000
18 | B18 | 0.042 | 0.017 | 400000
19 | B19 | 0.131 | 0.079 | 600000
20 | B20 | 0.015 | 0.0044 | 290000
